Substitutions are numbered along the chain they refer to. No end group written: not given here.
Biological target: streptavidin (Streptomyces avidinii, UniProt P22629)
Assay: Degree of biotinylation assessed by HPLC as fraction bound to streptavidin
Type: binding
Details: fusion protein biotinylation peptide-His(10)-phi29 pol, biotinylated in vivo in E. coli co-expressing biotin ligase, Ni-NTA purified, 2-fold molar excess of streptavidin
Method: Each of the DNA sequences encoding the affinity peptides was added individually to the 5′ terminus of a His(10)-tagged phi29 DNA polymerase gene such that the polypeptide expressed from each construct was a fusion protein consisting of: N-terminus-biotinylation peptide-His(10)-phi29 pol-C-terminus. Each gene was expressed in E. coli cells co-expressing biotin ligase in culture medium containing biotin. These conditions are known to effect the in-vivo biotinylation of biotinylation peptides. Proteins were purified using Ni-NTA columns and then mixed with a 2-fold molar excess of streptavidin under conditions known to effect binding of streptavidin to biotinylated fusion proteins.
The degree of biotinylation of each protein was assessed by HPLC. […] None of the biotinylation peptides affected the polymerase activity when tested in a branching fraction assay performed, for example, as described in U.S. patent application No. 2010/0112645.

streptavidin, sequence (P22629 25-183, species assumed): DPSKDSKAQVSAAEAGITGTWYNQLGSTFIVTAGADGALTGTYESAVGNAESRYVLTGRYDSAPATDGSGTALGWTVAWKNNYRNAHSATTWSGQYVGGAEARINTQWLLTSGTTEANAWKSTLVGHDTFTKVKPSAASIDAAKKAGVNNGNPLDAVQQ

B1: Leu Asn Asp Leu Phe His Ala Gln Lys Ile Glu Trp His (protein)
chain: LNDLFHAQKIEWHHHHHHHHHHHMKHMPRKMYSCDFETTTKVEDCRVWAYGYMNIEDHSEYKIGNSLDEFMAWVLKVQADLYFHNLKFDGAFIINWLERNGFKWSADGLPNTYNTIISRMGQWYMIDICLGYKGKRKIHTVIYDSLKKLPFPVKKIAKDFKLTVLKGDIDYHKERPVGYKITPEEYAYIKNDIQIIAEALLIQFKQGLDRMTAGSDSLKGFKDIITTKKFKKVFPTLSLGLDKEVRYAYRGGFTWLNDRFKEKEIGEGMVFDVNSLYPAQMYSRLLPYGEPIVFEGKYVWDEDYPLHIQHIRCEFELKEGYIPTIQIKRSRFYKGNEYLKSSGGEIADLWLSNVDLELMKEHYDLYNVEYISGLKFKATTGLFKDFIDKWTYIKTTSEGAIKQLAKLMLNSLYGKFASNPDVTGKVPYLKENGALGFRLGEEETKDPVYTPMGVFITAWARYTTITAAQACYDRIIYCDTDSIHLTGTEIPDVIKDIVDPKKLGYWAHESTFKRAKYLRQKTYIQDIYMKEVDGKLVEGSPDDYTDIKFSVKCAGMTDKIKKEVTFENFKVGFSRKMKPKPVQVPGGVVLVDDTFTIK
notes: biotinylation peptide tested as N-terminal fusion: biotinylation peptide-His(10)-phi29 pol
degree of biotinylation: bound to streptavidin: approximately 50%

B2: Leu Asn Asp Ile Val Glu Ala Gln Lys Ile Glu Trp His (protein)
chain: B1 chain with L4I, F5V, H6E
notes: as for B1
degree of biotinylation: bound to streptavidin: approximately 50%
